The results in this text go back to patent US20220017622A1 (Pfizer, published 2022).

Substitutions are numbered along the chain they refer to.

Experiment [1] deals with T1, human B7-H4 on cells (human, UniProt Q7Z7D3 25-282).
T1 sequence (looked up): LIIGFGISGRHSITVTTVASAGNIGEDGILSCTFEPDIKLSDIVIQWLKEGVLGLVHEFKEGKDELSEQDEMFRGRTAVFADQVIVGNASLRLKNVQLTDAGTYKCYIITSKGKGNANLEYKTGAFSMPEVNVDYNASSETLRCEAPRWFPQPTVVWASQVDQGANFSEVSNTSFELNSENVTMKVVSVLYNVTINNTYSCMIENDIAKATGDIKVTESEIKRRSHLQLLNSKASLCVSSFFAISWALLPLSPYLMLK
Nature of the experiment: cell-based or functional assay.

Experiment [2] addresses T1, human B7-H4 on cells. Kind of experiment: flow cytometry on MX-1 cells, 37 C.
Experiment [3] addresses T2, human CD3 on primary human T cells (human, UniProt P07766 23-207; P04234 22-171).
T2 construct: whole, on cells; On cells the whole CD3/TCR complex is present
Kind of experiment: flow cytometry on primary human T cells, 37 C.

Experiment [4] concerns the target T3, cyno CD3 (delta/epsilon heterodimer) (cyno, UniProt Q95LI5 22-117; Q95LI8 22-105).
T3 construct: also called cyCD3
Kind of experiment: SPR 25 C; CD3 delta/epsilon on anti-His chip, bispecific analyte.

In experiment [5] the target is T4, human CD3 (delta/epsilon heterodimer) (human, UniProt P07766 23-126; P04234 22-105).
T4 construct: captured on an anti-His chip, so it carries a His tag; also called huCD3
T4 sequence (P07766 23-126, stated change not applied, chain 1 of 2): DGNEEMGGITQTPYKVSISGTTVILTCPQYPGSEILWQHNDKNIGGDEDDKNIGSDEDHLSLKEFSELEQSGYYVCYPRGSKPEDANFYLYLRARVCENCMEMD
T4 sequence (P04234 22-105, stated change not applied, chain 2 of 2): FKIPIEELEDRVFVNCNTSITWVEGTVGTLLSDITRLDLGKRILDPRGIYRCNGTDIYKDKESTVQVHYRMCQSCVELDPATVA
The description is as above.

Experiment [6] has as its target T3, cyno CD3 (delta/epsilon heterodimer). Kind of experiment: SPR 37 C; CD3 delta/epsilon on anti-His chip, bispecific analyte.
The target in experiment [7] is T4, human CD3 (delta/epsilon heterodimer). The experiment is described as above.
The target in experiment [8] is T5, human B7-H4 extracellular domain (human, UniProt Q7Z7D3 29-258).
T5 construct: For SPR it says only human B7-H4 ECD; also called Hu B7-H4 ECD; huB7-H4 ECD
T5 sequence: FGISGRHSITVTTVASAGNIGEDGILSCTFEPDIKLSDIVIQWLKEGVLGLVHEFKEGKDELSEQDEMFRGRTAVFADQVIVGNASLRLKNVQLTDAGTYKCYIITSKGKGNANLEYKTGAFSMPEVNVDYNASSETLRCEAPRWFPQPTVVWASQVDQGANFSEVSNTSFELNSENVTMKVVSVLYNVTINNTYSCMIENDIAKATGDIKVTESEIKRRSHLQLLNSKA
Nature of the experiment: competition ELISA on coated huB7-H4 ECD; competitor biotinylated 0058 (by series, not given).

T3 sequence (Q95LI5 22-117, stated change not applied, chain 1 of 2): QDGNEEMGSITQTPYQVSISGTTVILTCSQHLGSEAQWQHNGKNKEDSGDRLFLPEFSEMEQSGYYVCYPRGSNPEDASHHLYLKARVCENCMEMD
T3 sequence (Q95LI8 22-105, stated change not applied, chain 2 of 2): as the sequence (P04234 22-105, stated change not applied, chain 2 of 2) above, with I5V, N15K, I20V, S32T, D33N, I34N, T64A, S74N, V83L counted along it
T2 sequence (P07766 23-207, chain 1 of 2): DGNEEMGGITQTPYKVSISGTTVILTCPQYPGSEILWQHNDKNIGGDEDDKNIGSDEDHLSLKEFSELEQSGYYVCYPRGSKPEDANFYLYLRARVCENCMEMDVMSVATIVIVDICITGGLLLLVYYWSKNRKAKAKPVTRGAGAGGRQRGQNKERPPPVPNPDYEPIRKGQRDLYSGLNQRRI
T2 sequence (P04234 22-171, chain 2 of 2): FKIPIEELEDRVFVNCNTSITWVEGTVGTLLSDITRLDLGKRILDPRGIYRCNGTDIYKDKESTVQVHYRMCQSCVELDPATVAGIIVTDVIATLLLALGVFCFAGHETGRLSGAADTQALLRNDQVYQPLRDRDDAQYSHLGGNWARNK

B1: B7-H4xCD3 bispecific antibody 1168 (bispecific antibody, IgG2)
heavy 1: EVQLLESGGGLVQPGGSLRLSCAASGFTFSSYAMSWVRQAPGKGLEWVSAISGGGGSTYYADSVKGRFTISRDNSKNTLYLQMNSLRAEDTAVYYCARDIQWYGESTLFDYWGQGTLVTVSSASTKGPSVFPLAPCSRSTSESTAALGCLVKDYFPEPVTVSWNSGALTSGVHTFPAVLQSSGLYSLSSVVTVPSSNFGTQTYTCNVDHKPSNTKVDKTVERKCEVECPECPAPPVAGPSVFLFPPKPKDTLMISRTPEVTCVVVAVSHEDPEVQFNWYVDGVEVHNAKTKPREEQFNSTFRVVSVLTVVHQDWLNGKEYKCKVSNKGLPSSIEKTISKTKGQPREPQVYTLPPSREEMTKNQVSLTCEVKGFYPSDIAVEWESNGQPENNYKTTPPMLDSDGSFFLYSKLTVDKSRWQQGNVFSCSVMHEALHNHYTQKSLSLSPG
light 1: DIQMTQSPSSLSASVGDRVTITCRASQSTRSWLAWYQQKPGKAPKLLIYKASSLESGVPSRFSGSGSGTDFTLTISSLQPEDFATYYCQQYGSYSRTFGQGTKVEIKRTVAAPSVFIFPPSDEQLKSGTASVVCLLNNFYPREAKVQWKVDNALQSGNSQESVTEQDSKDSTYSLSSTLTLSKADYEKHKVYACEVTHQGLSSPVTKSFNRGEC
heavy 2: EVQLVESGGGLVQPGGSLRLSCAASGFTFSDYYMTWVRQAPGKGLEWVAFIRNQARGYTSDHNPSVKGRFTISRDNAKNSLYLQMNSLRAEDTAVYYCARDRPSYYVLDYWGQGTTVTVSSASTKGPSVFPLAPCSRSTSESTAALGCLVKDYFPEPVTVSWNSGALTSGVHTFPAVLQSSGLYSLSSVVTVPSSNFGTQTYTCNVDHKPSNTKVDKTVERKCRVRCPRCPAPPVAGPSVFLFPPKPKDTLMISRTPEVTCVVVAVSHEDPEVQFNWYVDGVEVHNAKTKPREEQFNSTFRVVSVLTVVHQDWLNGKEYKCKVSNKGLPSSIEKTISKTKGQPREPQVYTLPPSREEMTKNQVSLTCLVKGFYPSDIAVEWESNGQPENNYKTTPPMLDSDGSFFLYSRLTVDKSRWQQGNVFSCSVMHEALHNHYTQKSLSLSPGK
light 2: DIQMTQSPSSLSASVGDRVTITCTSSQSLFNVRSQKNYLAWYQQKPGKAPKLLIYWASTRESGVPSRFSGSGSGTDFTLTISSLQPEDFATYYCKQSYDLFTFGGGTKVEIKRTVAAPSVFIFPPSDEQLKSGTASVVCLLNNFYPREAKVQWKVDNALQSGNSQESVTEQDSKDSTYSLSSTLTLSKADYEKHKVYACEVTHQGLSSPVTKSFNRGEC
notes: Chains 1-2: B7-H4 arm; chains 3-4: CD3 arm; IgG2
For B1, in experiment [1], the “T cell mediated tumor cell killing EC50, HCC1954-Luc” value amounted to 2160 nM; the “T cell mediated tumor cell killing, OVCAR3-Luc” value was 360; the “T cell mediated tumor cell killing, T47D” value stood at 1910. In addition, the EC50 in experiment [2] came to 13.1 nM. The same molecule registered an EC50 in experiment [3] of 5.56 nM.

B2: B7-H4xCD3 bispecific antibody 0077 (bispecific antibody)
heavy 1: QVQLQQWGAGLLKPSETLSLTCALYGGSFSGYYWNWIRQPPGKGLEWIGEINHSGSANYNPSLKSRVTISVDTSKNQFSLRLSSVTAADTAVYYCARGLYNWNVDRWGQGTLVTVSSASTKGPSVFPLAPCSRSTSESTAALGCLVKDYFPEPVTVSWNSGALTSGVHTFPAVLQSSGLYSLSSVVTVPSSNFGTQTYTCNVDHKPSNTKVDKTVERKCEVECPECPAPPVAGPSVFLFPPKPKDTLMISRTPEVTCVVVAVSHEDPEVQFNWYVDGVEVHNAKTKPREEQFNSTFRVVSVLTVVHQDWLNGKEYKCKVSNKGLPSSIEKTISKTKGQPREPQVYTLPPSREEMTKNQVSLTCEVKGFYPSDIAVEWESNGQPENNYKTTPPMLDSDGSFFLYSKLTVDKSRWQQGNVFSCSVMHEALHNHYTQKSLSLSPGK
light 1: not shown
heavy 2: B1 heavy 2
light 2: B1 light 2
notes: also called anti-B7-H4 clone 19D3
For the molecule B2, the “T cell mediated tumor cell killing EC50, HCC1954-Luc” value in experiment [1] is 93 nM. In experiment [4], the Kd stood at 13.7 nM, the koff is 0.00504 s⁻¹ and the kon turned out to be 369000 M⁻¹ s⁻¹. In addition, in experiment [5], the Kd was found to be 12.7 nM, the koff came to 0.00536 s⁻¹ and the kon was 423000 M⁻¹ s⁻¹.

B3: B7-H4xCD3 bispecific antibody 0068 (bispecific antibody, IgG2)
heavy 1: EVQLLESGGGLVQPGGSLRLSCAASGFTFSSYAMSWVRQAPGKGLEWVSAISGGGGSTYYADSVKGRFTISRDNSKNTLYLQMNSLRAEDTAVYYCARDIQWFGESTLFDYWGQGTLVTVSSASTKGPSVFPLAPCSRSTSESTAALGCLVKDYFPEPVTVSWNSGALTSGVHTFPAVLQSSGLYSLSSVVTVPSSNFGTQTYTCNVDHKPSNTKVDKTVERKCEVECPECPAPPVAGPSVFLFPPKPKDTLMISRTPEVTCVVVAVSHEDPEVQFNWYVDGVEVHNAKTKPREEQFNSTFRVVSVLTVVHQDWLNGKEYKCKVSNKGLPSSIEKTISKTKGQPREPQVYTLPPSREEMTKNQVSLTCEVKGFYPSDIAVEWESNGQPENNYKTTPPMLDSDGSFFLYSKLTVDKSRWQQGNVFSCSVMHEALHNHYTQKSLSLSPGK
light 1: B1 light 1 with M4L, S10T, T29I, Y36F, S56G, D70E, E81D, G92N
heavy 2: B1 heavy 2
light 2: B1 light 2
notes: Chains 1-2: B7-H4 arm; chains 3-4: CD3 arm; IgG2 EEE/RRR; also called anti-B7-H4 clone 37D4
With B3, in experiment [1], the “T cell mediated tumor cell killing EC50, HCC1954-Luc” value was 284 nM; the “T cell mediated tumor cell killing, MDA-MB-468” value was determined as 332; the “T cell mediated tumor cell killing, OVCAR3-Luc” value was determined as 79; the “T cell mediated tumor cell killing, T47D” value is 566. In experiment [4], this molecule registered a Kd of 13.5 nM, an off-rate (koff) of 0.00506 s⁻¹ and a kon of 374000 M⁻¹ s⁻¹. In experiment [5], this molecule returned a Kd of 13.2 nM, a dissociation rate constant (koff) of 0.00553 s⁻¹ and a kon of 420000 M⁻¹ s⁻¹. In addition, in experiment [6], the Kd was found to be 69 nM, the koff was found to be 0.0349 s⁻¹ and the kon worked out at 506000 M⁻¹ s⁻¹. In experiment [7], this molecule had a Kd of 63 nM, a koff of 0.0349 s⁻¹ and a kon of 554000 M⁻¹ s⁻¹.

B4: B7-H4xCD3 bispecific antibody 0999 (bispecific antibody, IgG2)
heavy 1: B1 heavy 1
light 1: B1 light 1 with M4L, S10T, T29I, Y36F, S56G, D70E, E81D, G92N
heavy 2: B1 heavy 2
light 2: B1 light 2
notes: as for B1
B4: in experiment [1], the “T cell mediated tumor cell killing EC50, HCC1954-Luc” value is 277 nM; the “T cell mediated tumor cell killing, OVCAR3-Luc” value turned out to be 90; the “T cell mediated tumor cell killing, T47D” value stood at 258. Besides, the EC50 in experiment [2] is 3.9 nM. It took 9.77 nM to reach a half-maximal effect in experiment [3] (EC50).

B5: B7-H4 antibody 0571 (antibody, human IgG1, kappa, V domains shown)
VH: EVQLLESGGGLVQPGGSLRLSCAASGFTFSSYAMSWVRQAPGKGLEWVSAISGGGGSTYYADSVKGRFTISRDNSKNTLYLQMNSLRAEDTAVYYCARDIQWFGESTLFDYWGQGTLVTVSS
VL: DIQMTQSPSSLSASVGDRVTITCRASQSTRSWLAWHQQKPGKAPKLLIYKASSLESGVPSRFSGSGSGTDFTLTISSLQPEDFATYYCQQYGSYSRTFGQGTKVEIKR
B5 yielded an IC50 in experiment [8] of 2.1 nM.

B6: B7-H4 antibody 0274 (antibody, human IgG1, kappa, V domains shown)
VH: B5 VH
VL: B5 VL with T29I, H36F, S56G, G92N
Consider B6, for which the IC50 in experiment [8] came out at 4.2 nM.

B7: B7-H4 antibody 1117 (antibody, human IgG1, kappa, V domains shown)
VH: B5 VH with F103Y
VL: B5 VL with H36L
B7 yielded an IC50 in experiment [8] of 0.15 nM.

B8: B7-H4 antibody 1113 (antibody, human IgG1, kappa, V domains shown)
VH: B5 VH with F103Y
VL: B5 VL with H36Y, S56G
As for B8, the half-maximal inhibitory concentration (IC50) in experiment [8] amounted to 1 nM.

B9: B7-H4 antibody 0572 (antibody, human IgG1, kappa, V domains shown)
VH: B5 VH
VL: B5 VL with H36L
With B9, in experiment [8], the concentration for half-maximal inhibition (IC50) turned out to be 1.7 nM.

B10: B7-H4 antibody 1115 (antibody, human IgG1, kappa, V domains shown)
VH: B5 VH with F103Y
VL: B5 VL with H36Y
For B10, the half-inhibitory concentration (IC50) in experiment [8] turned out to be 0.42 nM.

B11: B7-H4 antibody 1116 (antibody, human IgG1, kappa, V domains shown)
VH: B5 VH with F103Y
VL: B5 VL
As to B11, the IC50 in experiment [8] was found to be 0.16 nM.
